Experimental data published in article PMC5435687 (Scientific Reports, 2017).
Values joined by “and” are separate entries in the source; they are usually repeats but may differ in a detail not shown here. Equal entries are not always repeated.

Assays:
SH-SY5Y cells = assay: Confocal imaging based quantification of cellular uptake of Aβ; type: cell-based, human; details: for number of internalised Aβ peptides per cell (rounded): SH-SY5Y, 1 µM peptide, 8 h, imaging-based quantification, order-of-magnitude statement; for intravesicular Aβ concentration: re-calculated from molecules per cell (1 µM, 8 h) under assumption of total lysosomal load of 10 μm^3 per cell
Experimental: The samples were washed 1x in serum free medium prior to incubation with Aβ peptides and/or other reagents also in serum free medium that was supplemented with 30 mM HEPES and 2% B-27. For experiments including Trf B-27 was omitted as it, according to the media formulation provided by the manufacturer, contains unlabelled Trf that interferes with the experiment. Prior to imaging, cells were stained with 50 nM LysoTracker Deep Red for 30 min and 5 µg/ml Hoechst 33342 was added during the last 10 min of incubation. The cells were thereafter washed 1x, treated with 5 µg/ml FM 4–64 and imaged immediately (for labelling of cellular membrane) or after 10 min incubation at 37 °C (for labelling of cellular membrane and endocytic vesicles). Confocal images were acquired either on a Nikon C2+ confocal microscope equipped with a C2-DUVB GaAsP Detector Unit and using an oil-immersion 60 × 1.4 Nikon APO objective (Nikon Instruments, Amsterdam, Netherlands), or on a home-built Thorlabs CLS system equipped with a Galvo:Resonant scanner, a Multi-Channel Fiber-Coupled laser source and High-Sensitivity GaAsP PMT detectors recording onto ThorImageLS software (Thorlabs Inc, New Jersey, U.S.A.). The scanner unit was mounted onto a Leica DMIRB microscope equipped with an oil immersion 63x NA 1.47 Leica HCX PL APO objective for imaging and co-localisation analysis, or a 40x NA 0.55 Leica N PLAN L CORR air objective for quantification of peptide uptake. The sample was excited and detected sequentially with appropriate excitation laser lines and emission filters.
Images were captured with an open pinhole, corresponding to 7.8 airy units (AUs), in order to sample intensity from intracellular peptide throughout the full thickness of the cells. First, to determine an accurate sampling depth, images were acquired at three focal planes separated by 1 µm between each and analysed for matched summed intracellular intensity. Next, images were acquired with identical settings from a field of view with on average 25 cells/image. […] To obtain the total Aβ emission intensity per cell, all pixel values were summed and divided by the total number of cells in the image (the cell number was determined from the number of nuclei visible in the Hoechst emission channel). […] The mean intensity per pixel was calculated and related to concentration by performing a linear regression of mean intensity from three samples per concentration. The imaging depth was calculated based on imaging parameters and objective specifications generating a point spread function (PSF) for the focal spot. The resulting voxel size was calculated to be 740 nm in the axial direction, whereby 2.5x this voxel was determined to be representative of the sampling probe depth. […]

[1] = test system: SH-SY5Y cells transfected with AP180-C; assay: Uptake in cells overexpressing AP180-C; type: cell-based, human; details: SH-SY5Y 24 h post transfection; HF488-labelled Aβ 1 µM 1 h or AF647-Trf 5 µg/ml 5 min; low and high mRFP gates; N = 2, n = 2–4
Experimental: Flow cytometry was used to quantify cellular uptake. The samples were washed in serum free medium (1x for experiments including only Aβ and 3x for experiments with Trf) prior to incubation with Aβ peptides and/or other reagents in serum free medium supplemented with 30 mM HEPES and 2% B-27. For experiments including Trf B-27 was omitted, as outlined above. Prior to analysis, the cells were washed 1x (for experiments including only Aβ) or 3x (for experiments including Aβ and dextran 10 kDa or Trf) in serum free medium, detached by trypsin-EDTA for 10 min followed by addition of FBS-supplemented cell culture medium to inhibit further proteolytic degradation. All samples were kept on ice until they were analysed on a Guava EasyCyte 8HT (Millipore, Darmstadt, Germany) that automatically retrieves samples from a 96-well plate. In order to exclude effects due to difference in delay time we used mixed order of analysis, loading only a few samples at a time with the remaining samples kept on ice. The cell counting gate was determined using propidium iodide (0.5 µM, not washed away prior to analysis) and calcein-AM (10 nM, 15 min staining) to distinguish live and dead cells, and for each sample 5,000 cells from within the live gate were counted and analysed. HF488, AlexaFluor488, EGFP and calcein-AM were excited by a 488 nm laser and their fluorescence was detected through a 525/30 nm filter. Propidium iodide and mRFP were excited by the 488 nm laser but detected through a 692/46 nm filter. HF647 and AlexaFluor647 were excited with a 635 nm laser and detected through a 661/19 nm filter. Compensation was performed to adjust for bleed through in experiments including mRFP. Mean cellular uptake was estimated as the average fluorescence intensity of all cells gated within the live region and all individual experiments were performed with three technical replicates (n = 3) unless else is stated. The average fluorescence intensity was baseline corrected by subtracting the signal for unstained cells. […]

Substance | number of internalised Aβ peptides per cell (rounded) (SH-SY5Y cells) | intravesicular Aβ concentration (SH-SY5Y cells) | uptake in AP180-C transfected cells compared to non-transfected cells [1]
Aβ(1–40): Synthetic 40 residue amyloid-β peptide conjugated to HiLyte Fluor HF488 (or HF647) at the N-terminus, from Anaspec | 400,000 molecules per cell and ~ 400,000 molecules per cell | ~ 60 µM | neither Aβ(1–40) nor Aβ(1–42) uptake was affected
Aβ(1–42): Synthetic 42 residue amyloid-β peptide conjugated to HiLyte Fluor HF488 (or HF647) at the N-terminus, from Anaspec | 800,000 molecules per cell and ~ 800,000 molecules per cell | ~ 140 µM | small but statistically significant increase
